Measured values published in patent publication US10577424 (BEIJING MABWORKS BIOTECH, dated 2020).

Legend:
[1] = molecular target: T1, monkey VISTA (ECD)-his (Sino Biological, Cat #: 90801-K08H) (cynomolgus monkey); assay: direct ELISA, coated cynoVISTA(ECD)-his
T1 construct: extracellular domain; Bought protein; also called cynoVISTA(ECD)-his; cynomolgus VISTA (ECD)-his
Procedure: (§1) Species-cross-reactivity of the 28 VISTA mAbs to monkey or mouse VISTA was further assessed by direct ELISA. Briefly, 500 ng/ml monkey VISTA (ECD)-his (Sino Biological, CN, Cat #: 90801-K08H) or mouse VISTA-his (Sino Biological, CN, Cat #:511550-M08H) was coated on 96-well ELISA plates followed by incubation with 100 μl of serially diluted anti-VISTA antibodies (starting from 40000 ng/ml). Goat anti-mouse IgG conjugated with HRP (Sigma, US, Cat #:A9309-1 ml) was used then. Anti-VISTA antibody JNJ-VSTB174 (referred to as JNJ) (prepared using the amino acid sequences disclosed in WO 2015/097536 A2 with human IgG1/kappa constant regions) was used as the reference.

[2] = molecular target: T2, mouse VISTA-his (Sino Biological, Cat #:511550-M08H) (mouse, UniProt Q9D659 33-191); assay: direct ELISA, coated mouse VISTA-his
T2 construct: extracellular domain; Bought protein; also called muVISTA-his; mouse VISTA (ECD)-his; not shown: his tag
T2 sequence (looked up): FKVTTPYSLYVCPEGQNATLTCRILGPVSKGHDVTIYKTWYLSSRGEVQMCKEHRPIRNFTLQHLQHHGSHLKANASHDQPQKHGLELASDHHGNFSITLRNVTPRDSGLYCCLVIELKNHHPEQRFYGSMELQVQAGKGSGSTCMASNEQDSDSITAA
Procedure: as §1

[3] = molecular target: T3, monkey VISTA expressed on HEK293A cells (monkey (cynomolgus)); assay: FACS on HEK-293A/cynoVISTA cells
T3 construct: also called HEK293A/cynoVISTA; HEK293A/monkey VISTA
T3 chain: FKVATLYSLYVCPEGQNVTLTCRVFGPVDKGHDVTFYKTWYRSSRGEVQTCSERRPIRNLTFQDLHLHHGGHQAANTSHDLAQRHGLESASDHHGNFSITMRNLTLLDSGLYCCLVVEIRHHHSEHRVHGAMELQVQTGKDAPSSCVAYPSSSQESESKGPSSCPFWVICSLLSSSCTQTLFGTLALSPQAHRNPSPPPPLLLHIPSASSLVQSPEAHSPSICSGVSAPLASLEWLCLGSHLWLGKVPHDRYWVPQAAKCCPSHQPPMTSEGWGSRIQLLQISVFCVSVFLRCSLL
Procedure: (§2) Example 5 Mouse Anti-VISTA Monoclonal Antibodies Bound to Human and Monkey VISTA Expressed on HEK293A Cells To further determine whether anti-VISTA antibodies bound to human, monkey or mouse VISTA expressed on HEK293A cells, a cell-based binding assay by FACS was performed using the HEK293A cells stably overexpressing human, monkey or mouse VISTA as generated in Example 1, respectively. Briefly, 10^5 HEK293A cells were seeded into each well of the 96-well plates and serially diluted anti-VISTA antibodies were added to the plates. After incubated at 4° C. for 1 hour, plates were washed 3 times with PBST. Then, an APC coupled Goat Anti-Mouse IgG (BioLegend, US, Cat #:405308) diluted 500× was added to the plates. After incubation at 4° C. for 1 hour, the plates were washed with PBS for 3 times and then cell fluorescence was monitored using a FACS machine (BD).

[4] = molecular target: T4, human VISTA expressed on HEK293A cells (human, UniProt Q9H7M9 33-311); assay: FACS on HEK-293A/hVISTA cells
T4 construct: also called HEK293A/humanVISTA; HEK293A/human VISTA
T4 sequence: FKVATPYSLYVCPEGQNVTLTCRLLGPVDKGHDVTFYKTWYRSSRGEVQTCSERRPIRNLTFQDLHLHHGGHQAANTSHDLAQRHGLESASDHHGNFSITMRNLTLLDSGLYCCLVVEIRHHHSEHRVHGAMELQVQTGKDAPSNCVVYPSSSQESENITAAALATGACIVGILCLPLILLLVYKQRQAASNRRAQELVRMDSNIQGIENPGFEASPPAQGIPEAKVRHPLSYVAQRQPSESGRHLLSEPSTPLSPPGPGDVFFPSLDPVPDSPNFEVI
Procedure: as §2

[5] = molecular target: T5, human VISTA (ECD)-his (Sino Biological, Cat #:13482-H08H) (human, UniProt Q9H7M9 33-194); assay: direct ELISA, coated hVISTA(ECD)-his
T5 construct: extracellular domain; Bought protein; also called hVISTA(ECD)-his; recombinant human VISTA(ECD)-his; not shown: his tag
T5 sequence (looked up): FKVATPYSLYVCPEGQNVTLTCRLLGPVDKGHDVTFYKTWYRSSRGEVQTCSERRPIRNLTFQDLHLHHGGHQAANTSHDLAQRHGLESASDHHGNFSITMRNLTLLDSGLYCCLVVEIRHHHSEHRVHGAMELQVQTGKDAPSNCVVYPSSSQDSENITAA
Procedure: ELISA plates were coated with 500 ng/ml human VISTA (ECD)-his (Sino Biological, CN, Cat #:13482-H08H) at 4° C. overnight. The wells were blocked with 200 μl of blocking buffer (PBS containing 1% BSA, 1% goat serum, and 0.05% Tween 20) for 2 hours at room temperature, and then 100 μl of serially diluted anti-VISTA antibodies (starting from 40000 ng/ml) were added to each well and incubated for 1 hour at RT. Plates were washed for 3 times with PBST (PBS+0.05% Tween 20), added with Goat-anti-mouse IgG-HRP (Simga, US, Cat #:A9309-1 ml) diluted 5000×, and incubated for 1 hour at RT. Plates were developed with freshly prepared Ultra-TMB (BD, US, Cat #:555214) for 5 minutes at RT. Absorbance was read on a SpectraMax® i3× (Molecular Devies, US) at 450 nm.

[6] = molecular target: T6, mouse VISTA expressed on HEK293A cells (mouse, UniProt Q9D659 33-308); assay: FACS on HEK293A/mouse VISTA cells
T6 construct: also called HEK293A/mouseVISTA; HEK293A/mouse VISTA
T6 sequence: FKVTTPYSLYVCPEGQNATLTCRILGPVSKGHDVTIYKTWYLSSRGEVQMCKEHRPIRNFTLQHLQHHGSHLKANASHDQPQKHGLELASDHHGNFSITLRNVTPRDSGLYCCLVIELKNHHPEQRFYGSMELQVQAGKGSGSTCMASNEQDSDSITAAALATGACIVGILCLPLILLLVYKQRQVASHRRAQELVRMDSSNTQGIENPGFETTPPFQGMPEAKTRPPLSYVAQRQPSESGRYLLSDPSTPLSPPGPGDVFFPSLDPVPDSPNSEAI
Procedure: as §2

[7] = molecular target: T4, human VISTA expressed on HEK293A cells; assay: FACS blocking assay on HEK293A/human VISTA cells; competitor 200 µg/ml VSIG3-hFc
Procedure: A cell-based blocking assay by FACS was performed using the HEK293A cells stably overexpressing human VISTA as generated in Example 1. Briefly, 10^5 HEK293A/human VISTA cells were seeded into each well of the 96-well plates and serially diluted anti-VISTA antibodies were added to the plates. After incubated at 4° C. for 1 hour, plates were washed 3 times with PBST. Then 200 μg/ml VSIG3-hFc fusion proteins were added into the plate. After incubation at 4° C. for 1 hour, the plates were washed with PBS for 3 times and then an PE coupled Goat Anti-human IgG (Thermofisher, USA, Cat # PAI-86078) diluted 500× was added to the plates. After incubation at 4° C. for 1 hour, the plates were washed with PBS for 3 times and then cell fluorescence was monitored using a FACS machine (BD).

B1: mouse 161E5 anti-VISTA antibody (antibody, V domains shown)
VH: QVQLKQSGAELVRPGASVKLSCKASGYSFTDYYINWVKQRPGQGLEWIARIFPGSGNAYYNEKFKDKATLTVEKSSSAAYMQLSSLTSEDSAVYFCARDDSFYGYWYFDVWGTGTTVTVSS
VL: NIMMTQSPSSLAVSAGEKVTMSCKSSQSVLYSSNQKNYLAWYQQKPGQSPKLLIYWASTRESGVPDRFTGSGSGTDFTLTISSVQAEDLAVYYCHQYLSSYTFGGGTKLEIK
notes: also called mouse anti-VISTA antibodies from clone 161E5; murine antibody 161E5
[1]
  EC50: 0.45 nM
[2]
  binding result: no binding (tested: starting from 40000 ng/ml)
[3]
  EC50: 1.2 nM
[4]
  EC50: 0.6 nM
[5]
  EC50: 0.32 nM
[6]
  binding result: no binding
[7]
  EC50: 19 nM
